{"source": "paper PMC3678163", "binders": {"B1": {"name": "RNF111(282–411) fragment, wild type (domain or fragment)", "chain": "SENHQNNPAVPSGSIDEDVVVIEASSTPQVTANEEINVTSTDSEVEIVTVGESYRSRSTLGHSRSHWSQGSSSHASRPQEPRNRSRISTVIQPLRQNAAEVVDLTVDEDEPTVVPTTSARMESQATSASI"}}, "target": "poly-SUMO2 chains (3–8) (UniProt P61956)", "sequence (P61956 whole entry)": "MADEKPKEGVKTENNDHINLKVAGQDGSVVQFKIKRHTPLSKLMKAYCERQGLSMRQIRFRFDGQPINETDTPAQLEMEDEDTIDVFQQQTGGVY", "test": "SPR"}
{"binder": "B1", "values": [{"measurement": "Kd", "result": 15, "unit": "µM"}]}
